Data on 45 sequences can be found in the supplement of paper PMC9942255.

The data set has as its system Bacillus subtilis DB104 (SP-AmyQ fusion secretion). The data set can be described thus: AmyQ secretion efficiency, weighted average sort bin (1 = best secretion, 10 = worst) (bin number (weighted average, 1-10)); higher = lower secretion efficiency. In a few lines:
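Occupied alginate beads were sorted by large-particle flow cytometry into 10 equally populated bins according to green/red fluorescence ratio. Each bead (~65 nL) held fluorescein-starch and about 0.3 cells of a B. subtilis DB104 library expressing mature AmyQ fused to designed signal peptides from the amyE locus, and beads were grown about 13 h at room temperature and stained with nile red before sorting. Bin amplicons were Illumina-sequenced, and the secretion score is the read-frequency-weighted average bin number, normalised to beads per bin, excluding low-abundance sequences.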

In turn, MRPVFPLILSAVLFLSCFFGARQTERSASKR yielded an AmyQ secretion efficiency of 6.76.

MKKIMSAFVGMVLLTIFCFSPQASAEED: the AmyQ secretion efficiency is 2.74.

Turning to MSKWLIIAVSLAIAIVLFMYTKGEAKAAGM, the AmyQ secretion efficiency is 7.49.

Sequence MKKVLMAFIICLSLILQGGKGPPGGAKAESV gave an AmyQ secretion efficiency of 5.23.

On to MKRKLKRKKAISALSLGLLVSAPTASFAAES, for which the AmyQ secretion efficiency came to 4.1.

The sequence MKKIGLLFMLCLAALFTIGFPAQQADAAPR registered an AmyQ secretion efficiency of 1.25.

MKKAAAVLLSLGLVFGFSYGAGHVAEKKTK: the AmyQ secretion efficiency is 6.23.

In turn, MKRLLSTLLIGIMLLTFAPSSFAKQD showed an AmyQ secretion efficiency of 2.65.

“MKRIRIPMTLALGAALTIAPLSFPATVPGAGGTTASAEEN”: the AmyQ secretion efficiency turned out to be 4.38.

The sequence MKRTLPLLIVCLAFSSFSASARAASE registered an AmyQ secretion efficiency of 2.25.

MKKLVLCVSILAVILSGVMLTQLS returned an AmyQ secretion efficiency of 6.44.

MPYLKRVLLLLVTGLFMSLFAVTATGSAQTG: the AmyQ secretion efficiency was 1.13.

With MRHKIITFILAVVVIIIIGNMIGGGGGSEATSK, the AmyQ secretion efficiency worked out at 5.87.

With MLYLKRVLLLLVTGLFMSLFAVTATASAQTG, the AmyQ secretion efficiency worked out at 1.49.

Consider MKLSVKIAGVLTVAAAAMTAKMYSTAKGN, for which the AmyQ secretion efficiency is 6.41.

MRMLWRSLALCGLALTLAPCAQAAKK returned an AmyQ secretion efficiency of 2.93.

Consider MRMLWRSLALCGLALTLAICIAQAAEP, for which the AmyQ secretion efficiency amounted to 4.76.

Turning to MKLKKRVSMFLVALTMCGGLFVITVFTAVFTPAKAVKT, the AmyQ secretion efficiency is 7.26.

Sequence MKVLLSALLLLLFAFEPSASVKKL registered an AmyQ secretion efficiency of 6.34.

In turn, MGLGKKLSVAVAASFMSLSISLPGGQAAEG came in with an AmyQ secretion efficiency of 1.55.

As to MKNMSCKLVVSVTLFFSFLTIGPLAHRQNS, the AmyQ secretion efficiency is 6.88.

On to MKVLLSALLLLLFAFEPSPSGKKL, for which the AmyQ secretion efficiency is 6.9.

MKKRLIAPMLLSAASLAFFAMSGSCQAAAY showed an AmyQ secretion efficiency of 2.58.

Sequence MKNMSCKLVVSVTLFFSFLKRRPLAHAQNS returned an AmyQ secretion efficiency of 8.2.

MKLRKVLTGSVLSLGLLVSASPAFATSD gave an AmyQ secretion efficiency of 2.17.

The sequence MNLRKTYSGRGYSLGMLVSAAPVLATSS registered an AmyQ secretion efficiency of 6.74.

With MAIIIAIIAAVIVIAALITFNVRNYSPG, the AmyQ secretion efficiency worked out at 7.13.

“MKRLTLVCSIVFILEDLFYDLDIGTIPIQDLPVYEASAKTA” came in with an AmyQ secretion efficiency of 7.06.

Regarding MLTKRLLTIYIMLLGLIAWFPGAAQAATP, the AmyQ secretion efficiency was 2.42.

In turn, MKIRKLIFNMFLILLSSALSFGMLISAVPALAAGT yielded an AmyQ secretion efficiency of 3.62.

On to MKRSISIFITCLLITLLTMGGMIASPASAEDE, for which the AmyQ secretion efficiency worked out at 2.08.

For the sequence MRSKKILWISLLFALTLIFTMAFSNMSAQAAGK, the AmyQ secretion efficiency amounted to 2.64.

As for MNLRKILLSSALSLGMLVSAAPVLWTSS, the AmyQ secretion efficiency was 6.71.

The sequence MKLWMRKTQKGLFTIVTFGLVSPPAALMADKP displayed an AmyQ secretion efficiency of 5.07.

MKKTIMSFVAVAALSTTAFGAHLSAKEI gave an AmyQ secretion efficiency of 2.5.

In turn, MKKKLAAGLTASAIVGTTLVVTPSEAATI registered an AmyQ secretion efficiency of 3.77.

MNLRKILLSSALSLGMLVSAAPVLDTSS: the AmyQ secretion efficiency was 6.16.

MAIIIAIIAAVIVIAALITFAVRNASPG had an AmyQ secretion efficiency of 6.55.

MKQGKFSVFLILLLMLAPKEKAEAASS: the AmyQ secretion efficiency worked out at 2.23.

MMIKQCVICLSLLVFGTTKAHAEET registered an AmyQ secretion efficiency of 2.63.

For the sequence MIAYFGKCLLLVTIMFLGVLFGMPQANHG, the AmyQ secretion efficiency stood at 5.

Take MKQKRKIIGWILLLCIIPLFAFTVIASGKEV: the AmyQ secretion efficiency stood at 6.81.

MRSYIKVLTMCFLGLILFVPTALAARK registered an AmyQ secretion efficiency of 5.25.

Regarding MKMKSGMEQAVSVLLLLSRLPASLTSE, the AmyQ secretion efficiency worked out at 3.77.

Consider MKKGIIRFLLVSFVLFFALSTGITGVQHAPA, for which the AmyQ secretion efficiency was 5.62.
